Assay results as given in US20250235501A1 (UNIVERSITY OF CONNECTICUT, published 2025).

Molecular target: T1, Endogenous TRPM2 of mouse brain and cultured mouse cortical neurons (mouse, UniProt Q91YD4 1-1506)
T1 construct: whole, on cells
Experiment: co-IP with anti-TRPM2, western blot, PKCγ/TRPM2 ratio, brain tissue
Procedure: Thus, whether PKC interacts with TRPM2 was investigated.
NP-40 lysis buffer ([…], 150 mM NaCl, 1 mM EDTA, 50 mM Tris, pH=8.0) containing proteinase inhibitors (Sigma-Aldrich, 539131-10VL) and phosphatase inhibitors (Thermal Fisher Scientific, 78428) was used to lyse both cultured cells and frozen brain tissue. For transfected cells, proteins were extracted 36 hours after transfection. Cell and tissue lysate were lysed by ultrasound using an ultrasonic cleaner (Thermal Fisher Scientific) filled with ice-cold water for 30 min. After incubated on ice for 1 h, lysate was centrifuged at 13000 g for 30 min and supernatant was collected. Protein concentration was measured using Pierce™ Rapid Gold BCA Protein Assay Kit (Thermal Fisher Scientific, A53225). 300 μg of protein was taken and diluted using NP-40 lysis buffer to make a total volume of 500 μl. Unused protein was allocated and frozen at −80° C. for future use. Appropriate amount of antibody was added based on instruction. After protein-antibody mixture was incubated on ice for 2 h, 25 μL of pre-washed Protein A/G PLUS-Agarose (Santa Cruz Biotechnology, sc-2003) was added, and the whole mixture was incubated at 4° C. for overnight. Then the mixture was centrifuged at 2500 g for Imin to get agarose beads. […] Then samples were ready for western blotting analysis.

T1 sequence (Q91YD4 whole entry): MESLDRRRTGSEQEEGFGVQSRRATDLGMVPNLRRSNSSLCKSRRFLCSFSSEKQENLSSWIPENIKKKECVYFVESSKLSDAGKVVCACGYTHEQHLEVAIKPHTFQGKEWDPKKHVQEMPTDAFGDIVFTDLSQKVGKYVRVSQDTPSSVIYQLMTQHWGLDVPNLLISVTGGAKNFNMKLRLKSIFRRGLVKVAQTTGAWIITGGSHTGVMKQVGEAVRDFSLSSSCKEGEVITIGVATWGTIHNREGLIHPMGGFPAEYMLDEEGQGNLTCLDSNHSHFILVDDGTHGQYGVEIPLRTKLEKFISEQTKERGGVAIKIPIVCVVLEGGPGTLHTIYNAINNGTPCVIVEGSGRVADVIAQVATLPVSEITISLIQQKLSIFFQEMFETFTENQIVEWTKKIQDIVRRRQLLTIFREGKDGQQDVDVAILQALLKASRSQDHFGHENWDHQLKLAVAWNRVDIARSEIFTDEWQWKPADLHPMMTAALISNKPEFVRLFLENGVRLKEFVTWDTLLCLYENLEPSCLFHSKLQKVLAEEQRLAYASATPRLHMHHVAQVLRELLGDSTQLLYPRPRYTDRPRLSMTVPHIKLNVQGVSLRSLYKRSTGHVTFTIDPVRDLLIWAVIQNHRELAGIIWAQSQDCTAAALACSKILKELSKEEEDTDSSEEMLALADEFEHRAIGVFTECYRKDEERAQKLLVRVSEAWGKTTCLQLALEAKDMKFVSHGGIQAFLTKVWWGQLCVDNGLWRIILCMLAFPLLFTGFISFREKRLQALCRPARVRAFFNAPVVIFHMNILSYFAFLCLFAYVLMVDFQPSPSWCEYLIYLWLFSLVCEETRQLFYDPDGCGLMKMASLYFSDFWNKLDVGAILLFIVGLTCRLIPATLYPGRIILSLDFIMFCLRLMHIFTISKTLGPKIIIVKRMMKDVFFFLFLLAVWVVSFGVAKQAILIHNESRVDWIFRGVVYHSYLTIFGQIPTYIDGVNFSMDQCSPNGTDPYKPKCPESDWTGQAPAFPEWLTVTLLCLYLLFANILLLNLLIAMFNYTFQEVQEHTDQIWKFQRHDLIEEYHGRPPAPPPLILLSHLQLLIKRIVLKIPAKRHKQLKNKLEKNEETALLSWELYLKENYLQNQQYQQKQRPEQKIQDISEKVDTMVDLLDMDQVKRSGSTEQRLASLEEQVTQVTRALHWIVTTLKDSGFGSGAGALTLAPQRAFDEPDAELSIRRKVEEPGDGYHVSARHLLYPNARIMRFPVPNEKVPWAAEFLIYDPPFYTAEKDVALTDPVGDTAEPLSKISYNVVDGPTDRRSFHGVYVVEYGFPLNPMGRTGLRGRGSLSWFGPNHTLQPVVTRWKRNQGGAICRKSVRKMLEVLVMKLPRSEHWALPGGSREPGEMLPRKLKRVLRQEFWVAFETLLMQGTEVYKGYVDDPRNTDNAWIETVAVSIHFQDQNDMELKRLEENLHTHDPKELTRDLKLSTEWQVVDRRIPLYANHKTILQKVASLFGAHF

B1: Endogenous PKCγ of mouse brain and cultured mouse cortical neurons (enzyme)
chain: not shown
notes: whole, on cells; also called neuron-specific PKC
amount of PKCγ pulled down by anti-TRPM2, MCAO against sham mice: ~1.5 fold
